Experimental data published in patent US20260217779.

Experiments:
[1] = target: T1, hCXCL11.0023-G1T4k.one//VHn-G1T4h.one.H435R
T1 chain 1: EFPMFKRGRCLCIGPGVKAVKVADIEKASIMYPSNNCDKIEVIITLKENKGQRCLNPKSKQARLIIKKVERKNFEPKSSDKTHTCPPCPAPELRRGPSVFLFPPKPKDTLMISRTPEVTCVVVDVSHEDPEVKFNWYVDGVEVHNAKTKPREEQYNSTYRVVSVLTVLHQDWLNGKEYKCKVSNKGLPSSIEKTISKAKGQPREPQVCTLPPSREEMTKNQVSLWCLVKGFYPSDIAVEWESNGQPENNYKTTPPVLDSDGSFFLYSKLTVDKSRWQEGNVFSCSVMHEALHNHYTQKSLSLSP
T1 chain 2: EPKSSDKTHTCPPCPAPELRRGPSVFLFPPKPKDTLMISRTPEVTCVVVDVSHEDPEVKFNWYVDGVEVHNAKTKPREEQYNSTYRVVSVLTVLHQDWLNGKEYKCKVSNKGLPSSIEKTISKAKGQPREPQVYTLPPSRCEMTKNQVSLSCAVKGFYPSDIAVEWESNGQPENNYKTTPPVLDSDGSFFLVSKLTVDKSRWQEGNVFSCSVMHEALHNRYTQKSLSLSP

[2] = target: T2, hITIP0035-G1T4k.one//VHn-G1T4h.one.H435R
T2 chain 1: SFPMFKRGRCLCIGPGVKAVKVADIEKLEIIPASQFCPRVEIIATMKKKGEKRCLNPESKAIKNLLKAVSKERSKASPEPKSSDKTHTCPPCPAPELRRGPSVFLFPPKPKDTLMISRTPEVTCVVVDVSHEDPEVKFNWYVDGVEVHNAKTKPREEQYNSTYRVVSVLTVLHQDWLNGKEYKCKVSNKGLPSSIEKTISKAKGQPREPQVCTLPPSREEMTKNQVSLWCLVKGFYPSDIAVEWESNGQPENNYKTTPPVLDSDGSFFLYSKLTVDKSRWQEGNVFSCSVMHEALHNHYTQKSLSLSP
T2 chain 2: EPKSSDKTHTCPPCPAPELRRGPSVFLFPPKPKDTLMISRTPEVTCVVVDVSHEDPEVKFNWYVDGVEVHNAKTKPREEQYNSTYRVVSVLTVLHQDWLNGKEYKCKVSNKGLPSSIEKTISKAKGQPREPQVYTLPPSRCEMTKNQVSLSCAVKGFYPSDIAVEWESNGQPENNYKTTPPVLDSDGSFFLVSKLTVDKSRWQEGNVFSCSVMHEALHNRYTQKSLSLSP

[3] = target: T3, hCXCL11.0022-G1T4k.one//VHn-G1T4h.one.H435R
T3 chain 1: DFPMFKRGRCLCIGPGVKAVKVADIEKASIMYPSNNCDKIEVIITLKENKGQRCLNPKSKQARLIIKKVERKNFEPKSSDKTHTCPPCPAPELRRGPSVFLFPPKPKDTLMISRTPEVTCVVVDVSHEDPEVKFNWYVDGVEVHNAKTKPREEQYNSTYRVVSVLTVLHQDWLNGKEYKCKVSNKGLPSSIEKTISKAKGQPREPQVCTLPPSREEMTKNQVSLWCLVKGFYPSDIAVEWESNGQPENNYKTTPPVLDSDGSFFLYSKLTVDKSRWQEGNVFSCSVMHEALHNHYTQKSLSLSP
T3 chain 2: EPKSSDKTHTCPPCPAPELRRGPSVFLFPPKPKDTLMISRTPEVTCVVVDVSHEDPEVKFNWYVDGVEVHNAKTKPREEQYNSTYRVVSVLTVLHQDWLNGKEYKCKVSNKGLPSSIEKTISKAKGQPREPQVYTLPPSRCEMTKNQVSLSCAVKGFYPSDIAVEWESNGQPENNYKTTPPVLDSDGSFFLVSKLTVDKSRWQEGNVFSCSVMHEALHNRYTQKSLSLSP

[4] = target: T4, hITIP0037-G1T4k.one//VHn-G1T4h.one.H435R
T4 chain 1: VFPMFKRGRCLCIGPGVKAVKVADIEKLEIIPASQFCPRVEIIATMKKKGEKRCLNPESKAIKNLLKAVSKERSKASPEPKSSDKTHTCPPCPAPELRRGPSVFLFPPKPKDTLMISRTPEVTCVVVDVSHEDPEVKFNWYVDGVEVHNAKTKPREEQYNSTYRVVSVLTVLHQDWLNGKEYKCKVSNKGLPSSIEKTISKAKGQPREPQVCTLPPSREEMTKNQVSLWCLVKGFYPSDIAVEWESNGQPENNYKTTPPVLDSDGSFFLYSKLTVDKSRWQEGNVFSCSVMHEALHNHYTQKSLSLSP
T4 chain 2: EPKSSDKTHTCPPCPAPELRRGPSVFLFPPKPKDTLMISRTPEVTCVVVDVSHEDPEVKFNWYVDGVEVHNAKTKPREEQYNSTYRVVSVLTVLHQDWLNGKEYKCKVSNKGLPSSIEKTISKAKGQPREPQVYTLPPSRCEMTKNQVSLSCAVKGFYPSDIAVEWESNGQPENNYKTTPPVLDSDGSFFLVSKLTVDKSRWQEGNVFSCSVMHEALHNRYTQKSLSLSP

[5] = target: T5, hCXCL11.0036-G1T4k.one//VHn-G1T4h.one.H435R
T5 chain 1: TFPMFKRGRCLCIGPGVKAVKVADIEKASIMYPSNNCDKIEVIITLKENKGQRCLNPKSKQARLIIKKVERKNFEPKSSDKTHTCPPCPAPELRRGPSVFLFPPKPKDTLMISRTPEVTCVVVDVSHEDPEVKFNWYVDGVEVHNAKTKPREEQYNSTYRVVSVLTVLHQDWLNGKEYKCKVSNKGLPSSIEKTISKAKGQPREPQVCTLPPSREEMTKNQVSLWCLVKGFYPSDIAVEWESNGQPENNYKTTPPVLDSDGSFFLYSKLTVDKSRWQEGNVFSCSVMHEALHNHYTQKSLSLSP
T5 chain 2: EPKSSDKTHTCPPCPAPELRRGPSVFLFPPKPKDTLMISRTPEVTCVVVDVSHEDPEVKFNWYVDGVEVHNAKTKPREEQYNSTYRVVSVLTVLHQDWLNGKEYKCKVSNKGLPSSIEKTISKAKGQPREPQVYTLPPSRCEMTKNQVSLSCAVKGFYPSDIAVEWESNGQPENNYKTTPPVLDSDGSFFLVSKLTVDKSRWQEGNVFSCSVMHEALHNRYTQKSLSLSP

[6] = target: T6, hITIP0021-G1T4k.one//VHn-G1T4h.one.H435R
T6 chain 1: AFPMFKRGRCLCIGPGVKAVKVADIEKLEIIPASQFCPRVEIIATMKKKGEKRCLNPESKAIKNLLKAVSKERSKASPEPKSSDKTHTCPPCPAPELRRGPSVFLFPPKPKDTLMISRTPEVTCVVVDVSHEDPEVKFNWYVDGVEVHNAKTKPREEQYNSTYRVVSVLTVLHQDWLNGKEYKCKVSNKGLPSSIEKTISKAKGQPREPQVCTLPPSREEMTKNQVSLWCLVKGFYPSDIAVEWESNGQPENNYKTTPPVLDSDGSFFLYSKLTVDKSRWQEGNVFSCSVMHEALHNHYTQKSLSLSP
T6 chain 2: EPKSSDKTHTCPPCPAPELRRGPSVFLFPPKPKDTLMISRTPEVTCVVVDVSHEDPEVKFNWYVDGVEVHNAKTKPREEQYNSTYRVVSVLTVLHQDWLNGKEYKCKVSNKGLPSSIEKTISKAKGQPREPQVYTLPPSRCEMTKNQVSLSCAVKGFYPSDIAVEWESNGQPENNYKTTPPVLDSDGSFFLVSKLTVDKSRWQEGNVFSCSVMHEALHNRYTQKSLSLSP

[7] = target: T7, hCXCL11.0033-G1T4k.one//VHn-G1T4h.one.H435R
T7 chain 1: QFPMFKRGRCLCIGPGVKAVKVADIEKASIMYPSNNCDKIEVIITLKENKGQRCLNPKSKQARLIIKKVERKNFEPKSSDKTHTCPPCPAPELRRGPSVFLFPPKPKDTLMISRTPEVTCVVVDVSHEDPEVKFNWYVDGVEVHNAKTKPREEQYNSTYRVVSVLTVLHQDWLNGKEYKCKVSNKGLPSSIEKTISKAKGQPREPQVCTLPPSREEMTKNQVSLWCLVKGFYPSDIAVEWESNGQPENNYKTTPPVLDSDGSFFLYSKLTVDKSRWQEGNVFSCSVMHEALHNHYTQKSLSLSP
T7 chain 2: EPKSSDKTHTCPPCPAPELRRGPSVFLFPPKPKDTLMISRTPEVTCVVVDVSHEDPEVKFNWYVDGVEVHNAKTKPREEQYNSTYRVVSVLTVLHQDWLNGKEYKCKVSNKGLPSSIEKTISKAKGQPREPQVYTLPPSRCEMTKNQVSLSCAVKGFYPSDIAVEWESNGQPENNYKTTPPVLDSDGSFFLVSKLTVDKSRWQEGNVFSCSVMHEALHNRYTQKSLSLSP

[8] = target: T8, hITIP0036-G1T4k.one//VHn-G1T4h.one.H435R
T8 chain 1: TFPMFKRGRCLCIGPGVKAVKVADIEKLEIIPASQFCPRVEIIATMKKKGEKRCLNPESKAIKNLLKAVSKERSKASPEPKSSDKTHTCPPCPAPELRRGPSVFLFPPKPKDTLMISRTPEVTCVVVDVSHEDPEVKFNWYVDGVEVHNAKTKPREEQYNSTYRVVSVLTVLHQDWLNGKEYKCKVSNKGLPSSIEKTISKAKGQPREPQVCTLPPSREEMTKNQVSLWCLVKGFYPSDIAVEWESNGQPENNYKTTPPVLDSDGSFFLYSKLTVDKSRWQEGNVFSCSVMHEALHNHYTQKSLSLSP
T8 chain 2: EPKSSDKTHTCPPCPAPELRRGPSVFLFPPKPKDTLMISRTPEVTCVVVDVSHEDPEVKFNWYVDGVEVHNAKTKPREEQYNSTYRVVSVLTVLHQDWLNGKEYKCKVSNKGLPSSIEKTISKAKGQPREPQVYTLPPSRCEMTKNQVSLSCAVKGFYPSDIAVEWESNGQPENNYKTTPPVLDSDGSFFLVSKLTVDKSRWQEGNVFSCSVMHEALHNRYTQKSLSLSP

B1: human dipeptidyl peptidase IV (human DPPIV, hDPPIV) (Biolegend, 764102) (protein)
chain: NKGTDDATADSRKTYTLTDYLKNTYRLKLYSLRWISDHEYLYKQENNILVFNAEYGNSSVFLENSTFDEFGHSINDYSISPDGQFILLEYNYVKQWRHSYTASYDIYDLNKRQLITEERIPNNTQWVTWSPVGHKLAYVWNNDIYVKIEPNLPSYRITWTGKEDIIYNGITDWVYEEEVFSAYSALWWSPNGTFLAYAQFNDTEVPLIEYSFYSDESLQYPKTVRVPYPKAGAVNPTVKFFVVNTDSLSSVTNATSIQITAPASMLIGDHYLCDVTWATQERISLQWLRRIQNYSVMDICDYDESSGRWNCLVARQHIEMSTTGWVGRFRPSEPHFTLDGNSFYKIISNEEGYRHICYFQIDKKDCTFITKGTWEVIGIEALTSDYLYYISNEYKGMPGGRNLYKIQLSDYTKVTCLSCELNPERCQYYSVSFSKEAKYYQLRCSGPGLPLYTLHSSVNDKGLRVLEDNSALDKMLQNVQMPSKKLDFIILNETKFWYQMILPPHFDKSKKYPLLLDVYAGPCSQKADTVFRLNWATYLASTENIIVASFDGRGSGYQGDKIMHAINRRLGTFEVEDQIEAARQFSKMGFVDNKRIAIWGWSYGGYVTSMVLGSGSGVFKCGIAVAPVSRWEYYDSVYTERYMGLPTPEDNLDHYRNSTVMSRAENFKQVEYLLIHGTADDNVHFQQSAQISKALVDVGVDFQAMWYTDEDHGIASSTAHQHIYTHMSHFIKQCFSLP
For B1, the “cleavage by hDPPIV (LC/MS mass)” value [1] was “showed no mass change suggestive of peptide bond cleavage by hDPPIV treatment”, the “cleavage by hDPPIV (LC/MS mass)” value [2] was “showed no mass change suggestive of peptide bond cleavage by hDPPIV treatment” and the “cleavage by hDPPIV (LC/MS mass)” value [3] was “showed no mass change suggestive of peptide bond cleavage by hDPPIV treatment”. The “cleavage by hDPPIV (LC/MS mass)” value [4] was “showed no mass change suggestive of peptide bond cleavage by hDPPIV treatment”, the “cleavage by hDPPIV (LC/MS mass)” value [5] was “showed no mass change suggestive of peptide bond cleavage by hDPPIV treatment” and the “cleavage by hDPPIV (LC/MS mass)” value [6] was “showed no mass change suggestive of peptide bond cleavage by hDPPIV treatment”. For the same protein, the “cleavage by hDPPIV (LC/MS mass)” value [7] was “showed no mass change suggestive of peptide bond cleavage by hDPPIV treatment” and the “cleavage by hDPPIV (LC/MS mass)” value [8] was “showed no mass change suggestive of peptide bond cleavage by hDPPIV treatment”.
